Results reported in publication PMC12085566.

Target: BG505 SOSIP.664 Env trimer (HIV-1 (isolate BG505))
Experiment: cryo-EM structure

4-domain CD4 (receptor)
stoichiometry N (molecules per Env): 3
